Results published in PMC8896805, “Structural insights into ligand recognition, activation, and signaling of the α2A adrenergic receptor” (Science Advances, 2022).

Columns and labels:
α2AAR F^7.39N mutation = system: α2AAR F^7.39N mutation; set-up: method as in PMID 31801060; details: cited from earlier work
α2AAR S^5.46A = details: cited from earlier work
hybrid G protein Gαqi = hybrid G protein Gαqi (UniProt P50148)
hybrid G protein Gαqs = hybrid G protein Gαqs (UniProt P50148)

NC[C@H](O)c1ccc(O)c(O)c1 [Norepi, norepinephrine]
activity of Norepi at F^7.39N mutant, in words (α2AAR F^7.39N mutation): completely abolishes the activity

CNC[C@H](O)c1ccc(O)c(O)c1 [epinephrine]
potency to inhibit forskolin-stimulated cAMP accumulation at S^5.46A, in words (α2AAR S^5.46A): markedly reduced the potency

chimeric receptor α2AAR-β2-TM5 (from UniProt P08913 1-232; P07550 221-232; P08913 245-465)
IP accumulation (IP-One HTRF) in HEK293T cotransfected with receptor and Gαqi; Gi coupling activity, decrease against wild-type α2AAR (hybrid G protein Gαqi): 3 fold
IP accumulation (IP-One HTRF) in HEK293T cotransfected with receptor and Gαqs; Gs activity, decrease against wild-type α2AAR (hybrid G protein Gαqs): 10 fold

chimeric receptor β2AR-α2A-TM5 (from UniProt P07550 1-220; P08913 233-244; P07550 233-413)
IP accumulation (IP-One HTRF) in HEK293T cotransfected with receptor and Gαqi; Gi coupling activity, increase against wild-type β2AR (hybrid G protein Gαqi): > 100 fold
IP accumulation (IP-One HTRF) in HEK293T cotransfected with receptor and Gαqs; Gs coupling activity, increase against wild-type β2AR (hybrid G protein Gαqs): > 100 fold
